This note sets out measurements from the RNAGym collection of RNA variant scans (doi:10.1021/acssynbio.7b00057).

B1: Pistol ribozyme (parent)
chain: GGGUCGUUGUUCCAUAAUCGCGUGGAUAUGGCACGCAAGUUUCUACCGGGCACCGUAAAUGUCCGACUGGAGCCGUUCGGGCGGCUAUAAACAGACCUCAGGCCCGAAGCGUGGCGGCACCUGCCGCCGGUGGUAAAAAAGAUCGGAAGAGCACACGUCU

Variants of B1 are the subject of the data set. Kind of data set: aptazyme ON/OFF ratio, guanine; higher = stronger switching; co-transcriptional cleavage with and without guanine.
On to GGGUCGGACUGCAAUAAUCGCGUGGAUAUGGCACGCAAGUUUCUACCGGGCACCGUAAAUGUCCGACUGGAGCCGUUCGGGCGGCUAUAAACAGACCUCAGGCCCGAAGCGUGGCGGCACCUGCCGCCGGUGGUAAAAAAGAUCGGAAGAGCACACGUCU [U7G U8A G9C U11G C13A], for which the “aptazyme ON/OFF ratio” value amounted to 1.06.

For the variant GGGUCGGACUGUGAUAAUCGCGUGGAUAUGGCACGCAAGUUUCUACCGGGCACCGUAAAUGUCCGACUGGAGCCGUUCGGGCGGCUAUAAACAGACCUCAGGCCCGAAGCGUGGCGGCACCUGCCGCCGGUGGUAAAAAAGAUCGGAAGAGCACACGUCU [U7G U8A G9C U11G C12U C13G], the “aptazyme ON/OFF ratio” value stood at 1.07. Turning to GGGUCGGACUGUAAUAAUCGCGUGGAUAUGGCACGCAAGUUUCUACCGGGCACCGUAAAUGUCCGACUGGAGCCGUUCGGGCGGCUAUAAACAGACCUCAGGCCCGAAGCGUGGCGGCACCUGCCGCCGGUGGUAAAAAAGAUCGGAAGAGCACACGUCU [U7G U8A G9C U11G C12U C13A], the “aptazyme ON/OFF ratio” value was 1.05. GGGUCGGACUGUUAUAAUCGCGUGGAUAUGGCACGCAAGUUUCUACCGGGCACCGUAAAUGUCCGACUGGAGCCGUUCGGGCGGCUAUAAACAGACCUCAGGCCCGAAGCGUGGCGGCACCUGCCGCCGGUGGUAAAAAAGAUCGGAAGAGCACACGUCU [U7G U8A G9C U11G C12U C13U]: the “aptazyme ON/OFF ratio” value worked out at 1.19.

Take GGGUCGGACUCUUAUAAUCGCGUGGAUAUGGCACGCAAGUUUCUACCGGGCACCGUAAAUGUCCGACUGGAGCCGUUCGGGCGGCUAUAAACAGACCUCAGGCCCGAAGCGUGGCGGCACCUGCCGCCGGUGGUAAAAAAGAUCGGAAGAGCACACGUCU [U7G U8A G9C U11C C12U C13U]: the “aptazyme ON/OFF ratio” value came to 1.03. Regarding GGGUCGGACUCCGAUAAUCGCGUGGAUAUGGCACGCAAGUUUCUACCGGGCACCGUAAAUGUCCGACUGGAGCCGUUCGGGCGGCUAUAAACAGACCUCAGGCCCGAAGCGUGGCGGCACCUGCCGCCGGUGGUAAAAAAGAUCGGAAGAGCACACGUCU [U7G U8A G9C U11C C13G], the “aptazyme ON/OFF ratio” value worked out at 1.05. With GGGUCGGACUCCUAUAAUCGCGUGGAUAUGGCACGCAAGUUUCUACCGGGCACCGUAAAUGUCCGACUGGAGCCGUUCGGGCGGCUAUAAACAGACCUCAGGCCCGAAGCGUGGCGGCACCUGCCGCCGGUGGUAAAAAAGAUCGGAAGAGCACACGUCU [U7G U8A G9C U11C C13U] the figure was 1.05; with GGGUCGGACUCCAAUAAUCGCGUGGAUAUGGCACGCAAGUUUCUACCGGGCACCGUAAAUGUCCGACUGGAGCCGUUCGGGCGGCUAUAAACAGACCUCAGGCCCGAAGCGUGGCGGCACCUGCCGCCGGUGGUAAAAAAGAUCGGAAGAGCACACGUCU [U7G U8A G9C U11C C13A], 1.06. With GGGUCGGACUGAGAUAAUCGCGUGGAUAUGGCACGCAAGUUUCUACCGGGCACCGUAAAUGUCCGACUGGAGCCGUUCGGGCGGCUAUAAACAGACCUCAGGCCCGAAGCGUGGCGGCACCUGCCGCCGGUGGUAAAAAAGAUCGGAAGAGCACACGUCU [U7G U8A G9C U11G C12A C13G], the “aptazyme ON/OFF ratio” value was 1.06. With GGGUCGGACUGAUAUAAUCGCGUGGAUAUGGCACGCAAGUUUCUACCGGGCACCGUAAAUGUCCGACUGGAGCCGUUCGGGCGGCUAUAAACAGACCUCAGGCCCGAAGCGUGGCGGCACCUGCCGCCGGUGGUAAAAAAGAUCGGAAGAGCACACGUCU [U7G U8A G9C U11G C12A C13U] the figure was 1.06. For the variant GGGUCGGACUGAAAUAAUCGCGUGGAUAUGGCACGCAAGUUUCUACCGGGCACCGUAAAUGUCCGACUGGAGCCGUUCGGGCGGCUAUAAACAGACCUCAGGCCCGAAGCGUGGCGGCACCUGCCGCCGGUGGUAAAAAAGAUCGGAAGAGCACACGUCU [U7G U8A G9C U11G C12A C13A], the “aptazyme ON/OFF ratio” value worked out at 1.05. On to GGGUCGGACUGGCAUAAUCGCGUGGAUAUGGCACGCAAGUUUCUACCGGGCACCGUAAAUGUCCGACUGGAGCCGUUCGGGCGGCUAUAAACAGACCUCAGGCCCGAAGCGUGGCGGCACCUGCCGCCGGUGGUAAAAAAGAUCGGAAGAGCACACGUCU [U7G U8A G9C U11G C12G], for which the “aptazyme ON/OFF ratio” value was 1.04. On to GGGUCGGACUGACAUAAUCGCGUGGAUAUGGCACGCAAGUUUCUACCGGGCACCGUAAAUGUCCGACUGGAGCCGUUCGGGCGGCUAUAAACAGACCUCAGGCCCGAAGCGUGGCGGCACCUGCCGCCGGUGGUAAAAAAGAUCGGAAGAGCACACGUCU [U7G U8A G9C U11G C12A], for which the “aptazyme ON/OFF ratio” value is 1.03. Then GGGUCGGACUGUCAUAAUCGCGUGGAUAUGGCACGCAAGUUUCUACCGGGCACCGUAAAUGUCCGACUGGAGCCGUUCGGGCGGCUAUAAACAGACCUCAGGCCCGAAGCGUGGCGGCACCUGCCGCCGGUGGUAAAAAAGAUCGGAAGAGCACACGUCU [U7G U8A G9C U11G C12U], with 1.14; and GGGUCGGACUGCCAUAAUCGCGUGGAUAUGGCACGCAAGUUUCUACCGGGCACCGUAAAUGUCCGACUGGAGCCGUUCGGGCGGCUAUAAACAGACCUCAGGCCCGAAGCGUGGCGGCACCUGCCGCCGGUGGUAAAAAAGAUCGGAAGAGCACACGUCU [U7G U8A G9C U11G], with 1.04. With GGGUCGGACUGGGAUAAUCGCGUGGAUAUGGCACGCAAGUUUCUACCGGGCACCGUAAAUGUCCGACUGGAGCCGUUCGGGCGGCUAUAAACAGACCUCAGGCCCGAAGCGUGGCGGCACCUGCCGCCGGUGGUAAAAAAGAUCGGAAGAGCACACGUCU [U7G U8A G9C U11G C12G C13G] the figure was 1.03. With GGGUCGGACUGGUAUAAUCGCGUGGAUAUGGCACGCAAGUUUCUACCGGGCACCGUAAAUGUCCGACUGGAGCCGUUCGGGCGGCUAUAAACAGACCUCAGGCCCGAAGCGUGGCGGCACCUGCCGCCGGUGGUAAAAAAGAUCGGAAGAGCACACGUCU [U7G U8A G9C U11G C12G C13U], the “aptazyme ON/OFF ratio” value stood at 1.03. Then GGGUCGGACUGGAAUAAUCGCGUGGAUAUGGCACGCAAGUUUCUACCGGGCACCGUAAAUGUCCGACUGGAGCCGUUCGGGCGGCUAUAAACAGACCUCAGGCCCGAAGCGUGGCGGCACCUGCCGCCGGUGGUAAAAAAGAUCGGAAGAGCACACGUCU [U7G U8A G9C U11G C12G C13A], with 1.01.
